In PMC9482650, “Quantitative fragmentomics allow affinity mapping of interactomes” (Nature Communications, 2022):

T1: SYNJ2BP, P57105
T1 sequence (P57105 8-110, limits assumed, looked up): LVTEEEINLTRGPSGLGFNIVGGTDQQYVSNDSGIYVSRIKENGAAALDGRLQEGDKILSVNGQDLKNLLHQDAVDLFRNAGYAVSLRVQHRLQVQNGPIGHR

T2: LRRC7, Q96NW7
T2 sequence (Q96NW7 1440-1537, limits assumed, looked up): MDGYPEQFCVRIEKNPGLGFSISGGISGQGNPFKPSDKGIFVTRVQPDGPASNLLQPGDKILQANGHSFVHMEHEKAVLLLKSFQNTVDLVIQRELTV

T3: GRIP1_2, Q9Y3R0
T3 sequence (Q9Y3R0 145-248, limits assumed, looked up): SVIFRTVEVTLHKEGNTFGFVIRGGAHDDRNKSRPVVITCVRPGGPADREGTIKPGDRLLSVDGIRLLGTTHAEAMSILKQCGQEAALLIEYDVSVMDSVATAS

T4: PTPN13_1, Q12923
T4 sequence (Q12923 1088-1188, limits assumed, looked up): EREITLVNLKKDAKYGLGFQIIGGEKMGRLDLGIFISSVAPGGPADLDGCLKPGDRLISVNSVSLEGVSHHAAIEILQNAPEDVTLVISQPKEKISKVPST

T5: PDZRN3_1, Q9UPQ7
T5 sequence (Q9UPQ7 244-349, limits assumed, looked up): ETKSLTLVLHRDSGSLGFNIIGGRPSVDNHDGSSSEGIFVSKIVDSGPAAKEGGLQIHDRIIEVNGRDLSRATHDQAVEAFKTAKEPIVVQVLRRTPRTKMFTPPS

T6: TIAM2, Q8IVF5
T6 sequence (Q8IVF5 885-986, limits assumed, looked up): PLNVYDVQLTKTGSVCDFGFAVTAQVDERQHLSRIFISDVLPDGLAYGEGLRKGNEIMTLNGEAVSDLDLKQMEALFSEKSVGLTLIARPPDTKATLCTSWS

T7: FRMPD1, Q5SYB0
T7 sequence (Q5SYB0 52-145, limits assumed, looked up): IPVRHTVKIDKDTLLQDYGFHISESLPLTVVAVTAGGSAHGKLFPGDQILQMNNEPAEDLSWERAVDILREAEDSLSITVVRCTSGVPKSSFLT

T8: SNTG1, Q9NSN8
T8 sequence (Q9NSN8 52-150, limits assumed, looked up): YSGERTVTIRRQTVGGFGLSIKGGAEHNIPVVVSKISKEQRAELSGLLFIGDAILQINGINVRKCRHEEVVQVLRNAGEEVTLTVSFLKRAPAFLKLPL

T9: TX1BP3, O14907
T9 sequence (O14907 10-122, limits assumed, looked up): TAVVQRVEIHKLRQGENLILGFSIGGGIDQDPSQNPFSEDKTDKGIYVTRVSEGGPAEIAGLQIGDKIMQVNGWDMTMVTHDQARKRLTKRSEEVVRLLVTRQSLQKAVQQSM

T10: PDZD2_2, O15018
T10 sequence (O15018 329-429, limits assumed, looked up): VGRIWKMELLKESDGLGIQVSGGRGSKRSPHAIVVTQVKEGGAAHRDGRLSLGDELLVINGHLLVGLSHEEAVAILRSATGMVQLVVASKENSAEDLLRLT

T11: PCLO, Q9Y6V0
T11 sequence (Q9Y6V0 4491-4600, limits assumed, looked up): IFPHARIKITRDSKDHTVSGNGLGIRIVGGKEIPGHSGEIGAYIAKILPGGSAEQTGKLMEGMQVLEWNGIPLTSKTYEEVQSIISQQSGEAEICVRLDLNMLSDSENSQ

T12: DFNB31_2, Q9P202
T12 sequence (Q9P202 274-371, limits assumed, looked up): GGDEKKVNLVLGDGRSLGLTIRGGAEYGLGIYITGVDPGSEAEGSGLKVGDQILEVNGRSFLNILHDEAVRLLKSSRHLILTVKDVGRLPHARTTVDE

T13: MPP2, Q14168
T13 sequence (Q14168 180-250, limits assumed, looked up): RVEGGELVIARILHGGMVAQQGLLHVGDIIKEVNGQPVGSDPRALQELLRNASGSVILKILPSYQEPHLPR

T14: DFNB31_1, Q9P202
T14 sequence (Q9P202 135-233, limits assumed, looked up): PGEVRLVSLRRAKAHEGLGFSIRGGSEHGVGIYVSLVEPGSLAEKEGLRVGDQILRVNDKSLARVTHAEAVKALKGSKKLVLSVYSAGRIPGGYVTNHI

B1: CACNG4, Q9UBN1 (peptide)
chain: SMLNRRTTPV
B2: HSPA5, P11021 (peptide)
chain: EEDTAEKDEL
B3: FAT1, Q14517 (peptide)
chain: PLDSQQHTEV

target: T1, SYNJ2BP, P57105; assay: holdup assay; parameters: key: below the threshold = too weak to quantify, mostly under pKd 3.1 to 4; conditions: plain residues with an end cap or a label only (N-terminal biotin on a linker: ado-ado)

Binder	pKd
B1	5.12
B2	3.52
B3	4.62

target: T2, LRRC7, Q96NW7; assay: holdup assay; parameters: key: below the threshold = too weak to quantify, mostly under pKd 3.1 to 4; conditions: plain residues with an end cap or a label only (N-terminal biotin on a linker: ado-ado)

Binder	pKd
B1	below the threshold
B2	3.47
B3	below the threshold

target: T3, GRIP1_2, Q9Y3R0; assay: holdup assay; parameters: key: below the threshold = too weak to quantify, mostly under pKd 3.1 to 4; conditions: plain residues with an end cap or a label only (N-terminal biotin on a linker: ado-ado)

Binder	pKd
B1	below the threshold
B2	below the threshold
B3	below the threshold

target: CASK, O14936; assay: holdup assay; parameters: key: below the threshold = too weak to quantify, mostly under pKd 3.1 to 4; conditions: plain residues with an end cap or a label only (N-terminal biotin on a linker: ado-ado)
Sequence (O14936 487-570): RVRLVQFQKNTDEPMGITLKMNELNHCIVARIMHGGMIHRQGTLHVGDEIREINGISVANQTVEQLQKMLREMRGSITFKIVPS

Binder	pKd
B1	below the threshold
B2	below the threshold
B3	below the threshold

target: T4, PTPN13_1, Q12923; assay: holdup assay; parameters: key: below the threshold = too weak to quantify, mostly under pKd 3.1 to 4; conditions: plain residues with an end cap or a label only (N-terminal biotin on a linker: ado-ado)

Binder	pKd
B1	below the threshold
B2	below the threshold
B3	below the threshold

target: SNX27, Q96L92; assay: holdup assay; parameters: key: below the threshold = too weak to quantify, mostly under pKd 3.1 to 4; conditions: plain residues with an end cap or a label only (N-terminal biotin on a linker: ado-ado)

Binder	pKd
B1	4.93
B2	3.61
B3	4.7

target: T5, PDZRN3_1, Q9UPQ7; assay: holdup assay; parameters: key: below the threshold = too weak to quantify, mostly under pKd 3.1 to 4; conditions: plain residues with an end cap or a label only (N-terminal biotin on a linker: ado-ado)

Binder	pKd
B1	4.35
B2	below the threshold
B3	below the threshold

target: FRMPD2_3, Q68DX3; assay: holdup assay; parameters: key: below the threshold = too weak to quantify, mostly under pKd 3.1 to 4; conditions: plain residues with an end cap or a label only (N-terminal biotin on a linker: ado-ado)
Sequence (Q68DX3 1073-1166): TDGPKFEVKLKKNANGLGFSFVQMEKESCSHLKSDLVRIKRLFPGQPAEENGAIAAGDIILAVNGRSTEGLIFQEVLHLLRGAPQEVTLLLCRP

Binder	pKd
B1	below the threshold
B2	below the threshold
B3	below the threshold

target: Inadl_3, Q8NI35; assay: holdup assay; parameters: key: below the threshold = too weak to quantify, mostly under pKd 3.1 to 4; conditions: plain residues with an end cap or a label only (N-terminal biotin on a linker: ado-ado)
Sequence (Q8NI35 359-469): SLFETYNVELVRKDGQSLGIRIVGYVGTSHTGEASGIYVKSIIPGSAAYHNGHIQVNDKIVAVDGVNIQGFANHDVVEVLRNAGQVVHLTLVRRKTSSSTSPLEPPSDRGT

Binder	pKd
B1	below the threshold
B2	below the threshold
B3	below the threshold

target: T6, TIAM2, Q8IVF5; assay: holdup assay; parameters: key: below the threshold = too weak to quantify, mostly under pKd 3.1 to 4; conditions: plain residues with an end cap or a label only (N-terminal biotin on a linker: ado-ado)

Binder	pKd
B1	below the threshold
B2	below the threshold
B3	below the threshold

target: FRMPD4, Q14CM0; assay: holdup assay; parameters: key: below the threshold = too weak to quantify, mostly under pKd 3.1 to 4; conditions: plain residues with an end cap or a label only (N-terminal biotin on a linker: ado-ado)
Sequence (Q14CM0 67-160): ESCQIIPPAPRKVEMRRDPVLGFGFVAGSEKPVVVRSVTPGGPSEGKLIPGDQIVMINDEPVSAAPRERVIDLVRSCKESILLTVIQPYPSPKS

Binder	pKd
B1	below the threshold
B2	3.7
B3	below the threshold

target: T7, FRMPD1, Q5SYB0; assay: holdup assay; parameters: key: below the threshold = too weak to quantify, mostly under pKd 3.1 to 4; conditions: plain residues with an end cap or a label only (N-terminal biotin on a linker: ado-ado)

Binder	pKd
B1	below the threshold
B2	below the threshold
B3	below the threshold

target: T8, SNTG1, Q9NSN8; assay: holdup assay; parameters: key: below the threshold = too weak to quantify, mostly under pKd 3.1 to 4; conditions: plain residues with an end cap or a label only (N-terminal biotin on a linker: ado-ado)

Binder	pKd
B1	below the threshold
B2	below the threshold
B3	4.04

target: T9, TX1BP3, O14907; assay: holdup assay; parameters: key: below the threshold = too weak to quantify, mostly under pKd 3.1 to 4; conditions: plain residues with an end cap or a label only (N-terminal biotin on a linker: ado-ado)

Binder	pKd
B1	4.85
B2	below the threshold
B3	3.85

target: GIPC2, Q8TF65; assay: holdup assay; parameters: key: below the threshold = too weak to quantify, mostly under pKd 3.1 to 4; conditions: plain residues with an end cap or a label only (N-terminal biotin on a linker: ado-ado)
Sequence (Q8TF65 112-203): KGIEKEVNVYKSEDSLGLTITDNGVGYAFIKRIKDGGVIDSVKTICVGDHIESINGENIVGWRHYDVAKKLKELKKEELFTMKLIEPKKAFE

Binder	pKd
B1	below the threshold
B2	3.55
B3	3.89

target: T10, PDZD2_2, O15018; assay: holdup assay; parameters: key: below the threshold = too weak to quantify, mostly under pKd 3.1 to 4; conditions: plain residues with an end cap or a label only (N-terminal biotin on a linker: ado-ado)

Binder	pKd
B1	below the threshold
B2	3.53
B3	4.79

target: DLG5_1, Q8TDM6; assay: holdup assay; parameters: key: below the threshold = too weak to quantify, mostly under pKd 3.1 to 4; conditions: plain residues with an end cap or a label only (N-terminal biotin on a linker: ado-ado)
Sequence (Q8TDM6 617-713): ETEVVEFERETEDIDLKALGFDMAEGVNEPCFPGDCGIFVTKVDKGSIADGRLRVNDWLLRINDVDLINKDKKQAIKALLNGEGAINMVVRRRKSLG

Binder	pKd
B1	below the threshold
B2	below the threshold
B3	below the threshold

target: T11, PCLO, Q9Y6V0; assay: holdup assay; parameters: key: below the threshold = too weak to quantify, mostly under pKd 3.1 to 4; conditions: plain residues with an end cap or a label only (N-terminal biotin on a linker: ado-ado)

Binder	pKd
B1	below the threshold
B2	below the threshold
B3	below the threshold

target: T12, DFNB31_2, Q9P202; assay: holdup assay; parameters: key: below the threshold = too weak to quantify, mostly under pKd 3.1 to 4; conditions: plain residues with an end cap or a label only (N-terminal biotin on a linker: ado-ado)

Binder	pKd
B1	below the threshold
B2	below the threshold
B3	below the threshold

target: MAGI1_2, Q96QZ7; assay: holdup assay; parameters: key: below the threshold = too weak to quantify, mostly under pKd 3.1 to 4; conditions: plain residues with an end cap or a label only (N-terminal biotin on a linker: ado-ado)
Sequence (Q96QZ7 456-580): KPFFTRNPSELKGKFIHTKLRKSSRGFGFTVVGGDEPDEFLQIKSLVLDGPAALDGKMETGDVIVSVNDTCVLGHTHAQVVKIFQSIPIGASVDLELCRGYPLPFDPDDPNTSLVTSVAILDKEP

Binder	pKd
B1	4.82
B2	below the threshold
B3	below the threshold

target: T13, MPP2, Q14168; assay: holdup assay; parameters: key: below the threshold = too weak to quantify, mostly under pKd 3.1 to 4; conditions: plain residues with an end cap or a label only (N-terminal biotin on a linker: ado-ado)

Binder	pKd
B1	below the threshold
B2	below the threshold
B3	below the threshold

target: T14, DFNB31_1, Q9P202; assay: holdup assay; parameters: key: below the threshold = too weak to quantify, mostly under pKd 3.1 to 4; conditions: plain residues with an end cap or a label only (N-terminal biotin on a linker: ado-ado)

Binder	pKd
B1	4
B2	below the threshold
B3	3.85

target: GRIP2_6, Q9C0E4; assay: holdup assay; parameters: key: below the threshold = too weak to quantify, mostly under pKd 3.1 to 4; conditions: plain residues with an end cap or a label only (N-terminal biotin on a linker: ado-ado)
Sequence (Q9C0E4 648-740): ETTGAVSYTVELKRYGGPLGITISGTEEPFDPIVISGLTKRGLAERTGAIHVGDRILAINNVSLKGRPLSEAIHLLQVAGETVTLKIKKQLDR

Binder	pKd
B1	below the threshold
B2	below the threshold
B3	below the threshold
